Assay results published in US20130039923A1 (Novo Nordisk, published 2013).
Residue numbers refer to the chain shown, from its start. Numbers in names are those of the source.

T1: human IL20R1/IL20R2 receptor complex (human, UniProt Q9UHF4 30-553; Q6UXL0 30-311)
T1 construct: whole, on cells; also called hIL20R; hIL20R1+hIL20R2
T1 sequence (looked up) 1: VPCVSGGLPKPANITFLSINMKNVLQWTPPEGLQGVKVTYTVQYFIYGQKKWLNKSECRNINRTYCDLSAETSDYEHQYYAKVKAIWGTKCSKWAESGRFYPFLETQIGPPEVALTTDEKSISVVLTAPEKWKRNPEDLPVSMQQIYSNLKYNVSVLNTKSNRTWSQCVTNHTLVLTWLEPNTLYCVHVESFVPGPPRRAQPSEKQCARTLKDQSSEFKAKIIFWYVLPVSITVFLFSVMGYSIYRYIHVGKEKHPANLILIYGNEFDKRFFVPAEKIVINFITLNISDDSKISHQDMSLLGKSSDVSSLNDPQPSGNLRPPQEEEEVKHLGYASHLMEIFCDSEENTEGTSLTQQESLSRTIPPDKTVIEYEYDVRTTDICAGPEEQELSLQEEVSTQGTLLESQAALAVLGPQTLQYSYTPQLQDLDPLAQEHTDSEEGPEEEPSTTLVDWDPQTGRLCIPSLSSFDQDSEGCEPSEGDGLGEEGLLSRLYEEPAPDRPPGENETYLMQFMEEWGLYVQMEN
T1 sequence (looked up) 2: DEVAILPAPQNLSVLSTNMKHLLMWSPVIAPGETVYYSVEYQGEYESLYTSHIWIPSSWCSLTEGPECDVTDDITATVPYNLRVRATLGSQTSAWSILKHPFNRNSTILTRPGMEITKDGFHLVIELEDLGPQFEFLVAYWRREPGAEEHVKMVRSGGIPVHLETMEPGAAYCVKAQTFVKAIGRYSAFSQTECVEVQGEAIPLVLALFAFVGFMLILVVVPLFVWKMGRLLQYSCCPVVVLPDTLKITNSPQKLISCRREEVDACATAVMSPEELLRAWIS

T2: human IL22R1/IL20R2 receptor complex (human, UniProt Q8N6P7 16-574; Q6UXL0 30-311)
T2 sequence (looked up) 1: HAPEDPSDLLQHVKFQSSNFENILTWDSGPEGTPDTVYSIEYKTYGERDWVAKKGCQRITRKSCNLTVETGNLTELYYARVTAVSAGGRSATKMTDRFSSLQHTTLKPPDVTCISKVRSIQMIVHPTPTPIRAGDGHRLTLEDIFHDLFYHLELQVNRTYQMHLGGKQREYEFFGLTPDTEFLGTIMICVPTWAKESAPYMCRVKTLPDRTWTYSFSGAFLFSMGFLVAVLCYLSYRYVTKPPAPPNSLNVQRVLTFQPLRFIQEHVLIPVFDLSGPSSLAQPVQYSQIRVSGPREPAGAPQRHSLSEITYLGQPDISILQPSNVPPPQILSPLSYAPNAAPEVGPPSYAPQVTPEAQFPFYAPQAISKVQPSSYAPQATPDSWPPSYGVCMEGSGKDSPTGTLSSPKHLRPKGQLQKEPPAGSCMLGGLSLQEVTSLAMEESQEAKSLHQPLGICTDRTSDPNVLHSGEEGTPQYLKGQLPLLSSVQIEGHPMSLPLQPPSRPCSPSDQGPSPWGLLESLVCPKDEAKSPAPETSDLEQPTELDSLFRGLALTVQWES
T2 sequence (looked up) 2: T1 sequence (looked up) 2

B1: human IL19 (ligand)
chain: LRRCLISTDMHHIEESFQEIKRAIQAKDTFPNVTILSTLETLQIIKPLDVCCVTKNLLAFYVDRVFKDHQEPNPKILRKISSIANSFLYMQKTLRQCQEQRQCHCRQEATNATRVIHDNYDQLEVHAAAIKSLGELDVFLAWINKNHEVMFSA
notes: Bought from R&D systems; whole entry named; also called hIL19
B2: recombinant human interleukin-20 (ligand)
chain: LKTLNLGSCVIATNLQEIRNGFSEIRGSVQAKDGNIDIRILRRTESLQDTKPANRCCLLRHLLRLYLDRVFKNYQTPDHYTLRKISSLANSFLTIKKDLRLCHAHMTCHCGEEAMKKYSQILSHFEKLEPQAAVVKALGELDILLQWMEETE
B3: human anti-IL20 antibody 2F6 (antibody, human IgG4, V domains shown)
VH: QITLKESGPTLVKPTQTLTLTCTFSGFSFSTNGVGVGWIRQPPGKALEWLALIYWNDDKRYSPSLKSRLTITKDTSKNQVVLTMTNMDPLDTATYYCAHSPFIMVRGVIITFFDFWGQGTLVT
VL: VIWMTQSPSLLSASTGDRVTISCRMSQGISSYLAWYQQKPGKAPELLIYAASTLQSGVPSRFSGSGSGTDFTLTISCLQSEDFATYYCQQYYSFPLTFGGGTKVEIKR
B4: F18 (LC: F56Type1; HC: F18) (antibody, human IgG4, V domains shown)
VH: QVQVVQSGAEVKKPGASVRVSCTASGYTFTDYAIHWVRQAPGQRLEWMGWINAGYGNTKYSQKFQGRVTITRDTSASTVYMELSSLRSEDTAVYYCAREGGALSWFGESQGFDYWGQGTLVT
VL: AIQLTQSPSSLSASVGDRVTITCRASQGISSALAWYQQKPGKAPKLLIYDASSLESGVPSRFSGSGSGTDFTLTISSLQPEDFATYYCQQFNSYPLTFGGGTKVEIKR
B5: 15D2 with an S241P mutation (antibody, V domains shown)
VH: QVQLVQSGAEVKRPGASVKVSCKASGYTFTNDIIHWVRQAPGQRLEWMGWINAGYGNTQYSQNFQDRVSITRDTSASTAYMELISLRSEDTAVYYCAREPLWFGESSPHDYYGMDVWGQGTTVTVSS
VL: B4 VL
notes: IgG4 hinge mutation S241P (Kabat); Expressed in HEK293 or CHO cells (host named under assay); also called 15D2-S241P; not shown: human IgG4 heavy chain constant region
B6: human anti-IL20 antibody C11 (antibody, human IgG1, V domains shown)
VH: B5 VH
VL: B4 VL
B7: F56 (LC: F56Type1; HC: F56) (antibody, human IgG4, V domains shown)
VH: B4 VH with V4L, T30P, D31N, V79A, A102V, S104L
VL: B4 VL

Columns and labels:
[1] = molecular target: cynomolgus IL20R1/IL20R2 receptor complex (cynomolgus monkey); experiment: cell-based or functional assay
[2] = molecular target: cynomolgus IL22R1/IL20R2 receptor complex (cynomolgus monkey); experiment: cell-based or functional assay
[3] = molecular target: T1, human IL20R1/IL20R2 receptor complex; experiment: inferred from BaF-3(hIL20R) proliferation; IL19 reverted the 15D2 block
[4] = molecular target: T1, human IL20R1/IL20R2 receptor complex; experiment: cell-based or functional assay
[5] = molecular target: T2, human IL22R1/IL20R2 receptor complex; experiment: cell-based or functional assay
[6] = molecular target: B2; experiment: cell-based or functional assay
[7] = molecular target: B2; experiment: SPR (Biacore 3000/T100), antibody amine-coupled on CM5, recombinant hIL20 injected 3.125-100 nM, 1:1 Langmuir, 25 C; antibody from CHO
Method: (§1) Affinity studies were performed using a direct binding procedure, with the monoclonal antibody covalently coupled via free amine groups to the carboxymethylated dextrane membrane (CM5) on the sensor chip surface. […] The kinetic parameters for the interaction could be calculated using a 1:1 interaction Langmuir fitting model.
(§2) The purified monoclonal antibodies were immobilized in individual flow cells on a CM5 type sensor chip. Immobilizations were performed using a standard amine coupling procedure, aiming for an immobilization level of 1000 Resonance Units (RU). The antibodies were diluted to 5 μg/ml in 10 mM NaAc pH 5.0. […] Association (injection) was 3 min., followed by a 30 min. dissociation (wash) period. Flow rate was 30 μl/min. Experiments were performed at 25° C. Regeneration of the surface following each cycle, was accomplished by injection of 30 sec. pulse of 10 mM Glycin-HCl pH 1.8, at a 30 ul/min flow rate. Detection in all flow cells simultaneously. Flow cell No. 1 contained no immobilized antibody, and was used for subtraction of background and bulk. […] Data was inspected for mass-transport limitations prior to calculation of the kinetic parameters. Experiments were performed on Biacore 3000 and T100 instruments. Data was evaluated using Biaeval 4.1 and Biacore T100 evaluation software.

[8] = molecular target: B2; experiment: SPR (Biacore 3000/T100), antibody amine-coupled on CM5, recombinant hIL20 injected 3.125-100 nM, 1:1 Langmuir, 25 C; antibody from HEK293
Method: as §1, §2

Molecule: cynomolgus IL20 (from UniProt Q9NYY1 25-176) (ligand)
- fold induction of luciferase reporter in transfected BHK cells, 1 nM cynoIL20 [1]: 2 fold
- fold induction of luciferase reporter in transfected BHK cells, 1 nM cynoIL20 [2]: 3 to 4 fold

Molecule: B1
- binding result [3]: binds

Molecule: B2
- fold induction of luciferase reporter in transfected BHK cells, 1 nM hIL20 [4]: ~3 fold
- fold induction of luciferase reporter in transfected BHK cells, 1 nM hIL20 [5]: ~3 fold

Molecule: B3
- IC50, inhibition of IL20 induced proliferation of BaF-3(hIL20R) at 1e-9M hIL20 (assay 1) [6]: 15400 nM
- IC50, inhibition of IL20 induced proliferation of BaF-3(hIL20R) at 1e-9M hIL20 (assay 2) [6]: 13900 nM
- IC50, inhibition of IL20 induced proliferation of BaF-3(hIL20R) at 1e-9M hIL20 (assay 3) [6]: 1670 nM
- IC50, inhibition of IL20 induced proliferation of BaF-3(hIL20R) at 1e-9M hIL20 (assay 4) [6]: 360 nM
- IC50, inhibition of IL20 induced proliferation of BaF-3(hIL20R) at 1e-9M hIL20 (assay 5) [6]: 1800 nM
- IC50, inhibition of IL20 induced proliferation of BaF-3(hIL20R) at 1e-9M hIL20 (assay 6) [6]: 320 nM
- IC50, inhibition of IL20 induced proliferation of BaF-3(hIL20R) at 1e-9M hIL20 (assay 7) [6]: 15400 nM

Molecule: B4
- IC50, inhibition of IL20 induced proliferation of BaF-3(hIL20R) at 1e-9M hIL20 (assay 5) [6]: 50 nM

Molecule: B5
- Kd [7]: 0.031 nM
- koff [7]: 7.1e-05 s⁻¹
- kon [7]: 2.3e+06 M⁻¹ s⁻¹
- Kd [8]: 0.036 nM
- koff [8]: 6.8e-05 s⁻¹
- kon [8]: 1.7e+06 M⁻¹ s⁻¹

Molecule: B6
- IC50, inhibition of IL20 induced proliferation of BaF-3(hIL20R) at 1e-9M hIL20 (assay 1) [6]: 260 nM
- IC50, inhibition of IL20 induced proliferation of BaF-3(hIL20R) at 1e-9M hIL20 (assay 2) [6]: 2000 nM
- IC50, inhibition of IL20 induced proliferation of BaF-3(hIL20R) at 1e-9M hIL20 (assay 3) [6]: 370 nM
- IC50, inhibition of IL20 induced proliferation of BaF-3(hIL20R) at 1e-9M hIL20 (assay 7) [6]: 186 nM

Molecule: B7
- IC50, inhibition of IL20 induced proliferation of BaF-3(hIL20R) at 1e-9M hIL20 (assay 4) [6]: 40 nM
- IC50, inhibition of IL20 induced proliferation of BaF-3(hIL20R) at 1e-9M hIL20 (assay 5) [6]: 730 nM
